# Results reported in paper doi:10.1101/2025.11.11.687647 (bioRxiv, 2025).
# B1: CT–PT–BCCP fragment of MtPC (degradation product) (domain or fragment)
# chain: ADRGTKILNFLADVTVNNPYGSRPSTIYPDDKLPDLDLRAAPPAGSKQRLVKLGPEGFARWLRESAAVGVTDTTFRDAHQSLLATRVRTSGLSRVAPYLARTMPQLLSVECWGGATYDVALRFLKEDPWERLATLRAAMPNICLQMLLRGRNTVGYTPYPEIVTSAFVQEATATGIDIFRIFDALNNIESMRPAIDAVRETGSAIAEVAMCYTGDLTDPGEQLYTLDYYLKLAEQIVDAGAHVLAIKDMAGLLRPPAAQRLVSALRSRFDLPVHLHTHDTPGGQLASYVAAWHAGADAVDGAAAPLAGTTSQPALSSIVAAAAHTEYDTGLSLSAVCALEPYWEALRKVYAPFESGLPGPTGRVYHHEIPGGQLSNLRQQAIALGLGDRFEEIEEAYAGADRVLGRLVKVTPTSKVVGDLALALVGAGVSADEFASDPARFGIPESVLGFLRGELGDPPGGWPEPLRTAALAGRGAARPTAQLAADDEIALSSVGAKRQATLNRLLFPSPTKEFNEHREAYGDTSQLSANQFFYGLRQGEEHRVKLERGVELLIGLEAISEPDERGMRTVMCILNGQLRPVLVRDRSIASAVPAAEKADRGNPGHIAAPFAGVVTVGVCVGERVGAGQTIATIEAMKMEAPITAPVAGTVERVAVSDTAQVEGGDLLVVVS
# Target: the molecule itself
# Test: cryo-EM structure
protein,measurement,value
B1,stoichiometry N,2
